Results as given in US20260265381A1 (Hoffmann-La Roche, published 2026).

Columns and labels:
[1] = biological target: T1, human CD3 expressed on cells (Jurkat NFAT reporter cells; human T cells isolated from PBMCs) (human, UniProt P07766 23-207); test: flow cytometry on Jurkat NFAT cells; IgG1 PGLALA format; detection with PE anti-human IgG Fc F(ab')2
T1 construct: on cells it is part of the CD3/TCR complex; also called CD3 on Jurkat cells; CD3 expressed on T-cells

[2] = biological target: T2, recombinant single-chain HLA-G monomer/human HLA-G β2M MHC class I complex (human); test: SPR multi cycle kinetics (Biacore T200, 25 C); antibody captured via Fc on CM3 chip, HLA-G complex as analyte
T2 construct: also called wt-HLA-G complex; wt-HLA-G antigen

[3] = biological target: T2, recombinant single-chain HLA-G …; test: SPR multi cycle kinetics
[4] = biological target: T2, recombinant single-chain HLA-G …; test: SPR single cycle kinetics (Biacore T200, 25 C); antibody captured via Fc on CM3 chip, HLA-G complex as analyte

T1 sequence (P07766 23-207 limits assumed): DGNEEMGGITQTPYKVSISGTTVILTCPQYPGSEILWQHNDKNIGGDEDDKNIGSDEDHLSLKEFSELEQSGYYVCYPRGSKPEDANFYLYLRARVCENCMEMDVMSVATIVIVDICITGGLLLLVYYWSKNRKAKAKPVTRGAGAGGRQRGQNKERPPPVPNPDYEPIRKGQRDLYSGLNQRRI

B1: P035-093 (P035) human IgG1 PGLALA (antibody, V domains shown)
VH: EVQLLESGGGLVQPGGSLRLSCAASGFTFSSYAMNWVRQAPGKGLEWVSRIRSKYNNYATYYADSVKGRFTISRDDSKNTLYLQMNSLRAEDTAVYYCVRASNFPASYVSYFAYWGQGTLVTVSS
VL: QAVVTQEPSLTVSPGGTVTLTCGSSTGAVTTSNYANWVQEKPGQAFRGLIGGTNKRAPGTPARFSGSLLGGKAALTLSGAQPEDEAEYYCALWYSNLWVFGGGTKLTVLR
EC50 (read off the curve) [1]: ~0.5 nM

B2: CD3orig human IgG1 PGLALA (antibody, V domains shown)
VH: not shown
VL: QAVVTQEPSLTVSPGGTVTLTCGSSTGAVTTSNYANWVQEKPGQAFRGLIGGTNKRAPGTPARFSGSLLGGKAALTLSGAQPEDEAEYYCALWYSNLWVFGGGTKLTVLR
notes: Human IgG1 format with P329G L234A L235A mutations in the Fc region
EC50 (read off the curve) [1]: ~0.8 nM

B3: HLA-G-0090-VL-S33D (antibody, IgG1, V domains shown)
VH: QVQLQQSGPGLLKPSQTLSLTCAISGDSVSSNRAAWNWIRQSPSRGLEWLGRTYYRSKWYNDYAVSVQGRITLIPDTSKNQFSLRLNSVTPEDTAVYYCASVRAVAPFDYWGQGVLVTVSS
VL: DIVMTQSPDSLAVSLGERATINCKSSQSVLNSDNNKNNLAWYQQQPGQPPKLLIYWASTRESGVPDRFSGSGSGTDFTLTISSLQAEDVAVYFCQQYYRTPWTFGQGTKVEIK
notes: also called HLA-G-0090-S33D
Kd [2]: 7.4 nM | koff [2]: 0.00667 s⁻¹ | kon [2]: 897000 M⁻¹ s⁻¹ | t½ [2]: 104 s | factor of loss of binding affinity compared to HLA-G-0090 [3]: 5 fold | Kd [4]: 4.8 nM | koff [4]: 0.00344 s⁻¹ | kon [4]: 717000 M⁻¹ s⁻¹ | t½ [4]: 202 s

B4: HLA-G-0090-VL-S33P (antibody, IgG1, V domains shown)
VH: QVQLQQSGPGLLKPSQTLSLTCAISGDSVSSNRAAWNWIRQSPSRGLEWLGRTYYRSKWYNDYAVSVQGRITLIPDTSKNQFSLRLNSVTPEDTAVYYCASVRAVAPFDYWGQGVLVTVSS
VL: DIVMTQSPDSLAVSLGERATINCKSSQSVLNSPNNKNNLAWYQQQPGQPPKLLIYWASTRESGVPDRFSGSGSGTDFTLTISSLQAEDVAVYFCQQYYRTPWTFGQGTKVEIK
notes: also called HLA-G-0090-S33P
Kd [2]: 2.7 nM | koff [2]: 0.00368 s⁻¹ | kon [2]: 1.36e+06 M⁻¹ s⁻¹ | t½ [2]: 188 s | factor of loss of binding affinity compared to HLA-G-0090 [3]: 2 fold | Kd [4]: 1.8 nM | koff [4]: 0.00236 s⁻¹ | kon [4]: 1.34e+06 M⁻¹ s⁻¹ | t½ [4]: 294 s
